The labels stand for the following.
B1: Group 55 representative clone F083-305, Fab-PP-type antibody (Fab, V domains shown)
VH: EVQLVESGAEVKKPGSSVKVSCKASGSIFSNYAISWVRQAPGQGLEWMGGIVPMFGTTRFAQKFQGRVTITADESRSTAYMELNNLISEDTAVYYCARAPLIYNWYFDLWGRGTLVTVSS
VL: EIVLTQSPSFVSASVGDRVSITCRASQGISSWLAWYQQKPGKAPRLLIYGASNLQSGVPSRFSGSGSGTDYTLTINSLQPEDFATYYCQQARTFPVTFGQGTKLEIK
B2: Group 56 representative clone F083-318, Fab-PP-type antibody (Fab, V domains shown)
VH: B1 VH with E6Q, K23Q, S35N, M54I, V68L, S75P, F107Y
VL: EIVLTQSPSSLSASVGDRVTITCRASQGISNYLAWYQQKPGKVPKLLIYAASTLQSGVPSRFSGSGSGTDFTLTISSLQPEDVATYYCQKYNSAPHTFGPGTKVDIK
B3: Group 57 representative clone F083-103, Fab-PP-type antibody (Fab, V domains shown)
VH: QVQLQQSGADVKKAGSSVKVSCKASGRTFGNYAISWVRQAPGQGLEWMGGITPIFGAANYAQKFQGRVTISADLSTRMVYMDLSSLRSDDTAFYYCAGHPTYHYGSAMDYWGQGTLVTVSS
VL: QSVLTQPPSVSAAPGQKVTITCSGSSSNIGNNYVSWYQQLPGTAPKLLISEGSNRPSGIPDRFSGSKSGTSATLGITGLQTGDEATYYCATWDDSLSVVLFGGGTRLTVLS
B4: Group 35 representative clone F082-117, Fab-PP-type antibody (Fab, V domains shown)
VH: QVQLVQSGSEVKKPGSSVKVSCKSSGGILRRSAISWVRQAPGQGLEWMGGILAIFGTTKYAQKFQGRITITADESTNTVHMELSSLRPDDTAVYYCAGGPHYYVSYFDSWGQGTLVTVSS
VL: DIQMTQSPATLSLSPGERATLSCRASQSVRSYLAWYQQKPGQAPRLLIYDASNRATGIPARFSGSGSGTEFTLTISRLEPEDFAVYYCQQRSNWLFTFGPGTKVDFK
B5: Group 58 representative clone F083-307, Fab-PP-type antibody (Fab, V domains shown)
VH: QVQLQQSGADVKKPGSSVKVSCKASGGTFGNYAISWVRQAPGQGLEWMGGITPIFGPANYAQRFQGRVTISADISTRTAYMELSSLRSEDTAIYYCARHPTYYFGSAMEYWGQGTLVTVSS
VL: SYELTQPPSVSVAPGQTATITCGGDRIGTGPVHWYQQRPGRAPVLIIYGSTHRPSGIPERFSGSKSVNTATLSISGVGVGDEADYYCQVWDTSTAQPIVFGGGTKLTVLS
B6: Group 37 representative clone F083-311, Fab-PP-type antibody (Fab, V domains shown)
VH: QVQLVQSGSEVKKPGSSVKVSCKASGGIFRTNAISYVRQAPGQGLEWMGGITAIFGTPNYAQKFQGRVTIIADESTSTVYMELGSLTSEDTAVYYCATSGTYYVSYFDSWGQGTLVTVSS
VL: DIVMTQSPGTLTLSPGERATLSCRASQSLYSSHLAWYQQKPGQPPRLLIYGASTRAPGTPDRFSGSGSGTDFTLTITALDPEDSAVYYCQQYGSSPITFGQGTRLEIK
B7: Group 39 representative clone F082-237, Fab-PP-type antibody (Fab, V domains shown)
VH: QVQLVQSGAEVKKPGSSVKVSCKASGGIFNKYGISWVRQAPGQGLEWMGGILAIFGTTNYAQKFQGRVTISADESSTTVYMELSSLTSEDTAVYYCARGNTYYSSYFDQWGQGTLVTVSS
VL: QSVLTQPPSVSVAPGQTATITCGGDKIGTGPVHWYQQMPGRAPVLLIYASTHRPSRIPERFSGSKSDNTATLSISGVGVGDEADYYCQMWDSSSVHPIVFGGGTKLTVLS
B8: Group 54 representative clone F083-354, Fab-PP-type antibody (Fab, V domains shown)
VH: B7 VH with A9S, K31S, S71T, E74D, T77K, N100S
VL: DIQMTQSPSSLSASVGDRVTITCRASQGIRNSLAWYQQKPGQVPKLLIYSATTLRSGVPYRFSGSGSGTDFTLTISGLQPEDVGTYFCHRYDSAPLTFGGGTRVALK
B9: Group 52 representative clone F083-328, Fab-PP-type antibody (Fab, V domains shown)
VH: QVQLVQSGAEVKKPGSSVKLSCKASGGTLRSYALSWVRQAPGEGLEWMGGISAIFNTATYAQNVQGRVTITADESTNTFYLEVSSLRSDDTAVYYCATSGTYYVSFFDYWGQGTLVTVSS
VL: DIVLTQSPSTLSASVGDRVTLTCRASQSIGSLMAWYQQQPGKPPKLLIYRASNLETGVPSRFTGSGSGTEFALTISSLQPDDVGTYYCQHFKTFSRTFGQGTKVEIK
B10: Group 42 representative clone F083-249, Fab-PP-type antibody (Fab, V domains shown)
VH: QVQLVQSGSEVKKPGSSVKVSCKASGVTFSSYAISWVRQAPGQGLEWMGGISPMFGTTRYAQKFQGRVTITADESTRTGFMELSSLRSGDTAVYYCARSPTYYPGALDMWGQGTTVTVSS
VL: DVVMTQSPSLLSASVGDRVTITCRASQAIANFVSWFQQKPGEAPKSLIHAASTLQGGVPPRFSGSGYGAVFTLTITNLQPEDFATYFCQQYNSLPFTFGPGTDVEVR

Where a chain is given by its changes, count along the chain named.

One assay deals with Influenza virus A/Brisbane/59/2007 (H1N1) (Influenza A virus A/Brisbane/59/2007 (H1N1)). The experiment in a line: cell-based or functional assay.
Regarding B1, the HI activity was above 160 µg/mL, the Neutralizing activity (%) at 100 µg/ml is 96.1% and the Neutralizing activity (%) at 250 µg/ml stood at 96.1%.
On to B2, for which the HI activity was above 160 µg/mL, the Neutralizing activity (%) at 100 µg/ml was 84.2% and the Neutralizing activity (%) at 250 µg/ml worked out at 92.1%.
Turning to B3, the HI activity is above 160 µg/mL, the Neutralizing activity (%) at 100 µg/ml was 84.2% and the Neutralizing activity (%) at 250 µg/ml turned out to be 92.1%.
In the same order, the values of B4 are above 160 µg/mL, 100% and 100%.
With B5, the HI activity was above 160 µg/mL, the Neutralizing activity (%) at 100 µg/ml was determined as 100% and the Neutralizing activity (%) at 250 µg/ml is 100%.
As to B6, the HI activity is above 160 µg/mL, the Neutralizing activity (%) at 100 µg/ml worked out at 100% and the Neutralizing activity (%) at 250 µg/ml came out at 100%.
With B7, the HI activity was above 160 µg/mL, the Neutralizing activity (%) at 100 µg/ml turned out to be 48.7% and the Neutralizing activity (%) at 250 µg/ml stood at 64.5%.
Turning to B8, the HI activity is above 160 µg/mL, the Neutralizing activity (%) at 100 µg/ml was 96.1% and the Neutralizing activity (%) at 250 µg/ml came to 100%.
For B9, the HI activity was above 160 µg/mL, the Neutralizing activity (%) at 100 µg/ml turned out to be 100% and the Neutralizing activity (%) at 250 µg/ml was 100%.
As to B10, the HI activity was above 160 µg/mL, the Neutralizing activity (%) at 100 µg/ml stood at 100% and the Neutralizing activity (%) at 250 µg/ml worked out at 100%.

The next assay deals with Influenza virus A/California/7/2009pdm (H1N1pdm) (Influenza A virus A/California/7/2009pdm (H1N1pdm)). The experiment in a line: cell-based or functional assay.
B1 had an HI activity above 160 µg/mL.
Still for that read-out and setting: the value for B2 was above 160 µg/mL; that for B3 was above 160 µg/mL; that for B4 was above 160 µg/mL.
On the same count and under the same terms, as for B5, the figure is above 160 µg/mL; as for B6, above 160 µg/mL; as for B7, above 160 µg/mL.
Same read-out and setting: as for B8, the figure is above 160 µg/mL; as for B9, above 160 µg/mL; as for B10, above 160 µg/mL.

The target of another assay is Influenza virus A/Suita/1/2009pdm (H1N1 2009 pandemic) (Influenza A virus A/Suita/1/2009pdm (H1N1pdm)). The assay is described as follows: cell-based or functional assay.
For the molecule B1, the Neutralizing activity (%) at 100 µg/ml was 88.3% and the Neutralizing activity (%) at 250 µg/ml came out at 69.5%.
The corresponding values for B2 are 13.5% and 27.9%.
As to B3, the Neutralizing activity (%) at 100 µg/ml stood at 60.2% and the Neutralizing activity (%) at 250 µg/ml came to 83.8%.
In the same order, the values of B4 are 100% and 100%.
Consider B5, for which the Neutralizing activity (%) at 100 µg/ml is 76.6% and the Neutralizing activity (%) at 250 µg/ml turned out to be 54.8%.
In the same order, the values of B6 are 93% and 100%.
The corresponding values for B7 are 95.3% and 100%.
In the same order, the values of B8 are 100% and 94.2%.
Regarding B9, the Neutralizing activity (%) at 100 µg/ml came out at 100% and the Neutralizing activity (%) at 250 µg/ml was 100%.
Turning to B10, the Neutralizing activity (%) at 100 µg/ml was found to be 100% and the Neutralizing activity (%) at 250 µg/ml was found to be 97.7%.

The next assay concerns the target Influenza virus A/Indonesia/5/2005/PR8-IBCDC-RG2 (H5N1) (Influenza A virus A/Indonesia/5/2005/PR8-IBCDC-RG2 (H5N1)). The assay is described as follows: cell-based or functional assay.
B1: the Neutralizing activity (%) at 100 µg/ml came out at 2.4% and the Neutralizing activity (%) at 250 µg/ml amounted to 22.4%.
As to B2, the Neutralizing activity (%) at 100 µg/ml is -9.5% and the Neutralizing activity (%) at 250 µg/ml was found to be 1.7%.
The corresponding values for B3 are 30% and 61.2%.
For B4, the Neutralizing activity (%) at 100 µg/ml amounted to 94.1% and the Neutralizing activity (%) at 250 µg/ml is 95.9%.
In the same order, the values of B5 are 28.8% and 31.8%.
For the molecule B6, the Neutralizing activity (%) at 100 µg/ml worked out at 90% and the Neutralizing activity (%) at 250 µg/ml was found to be 97.1%.
The corresponding values for B7 are 31.2% and 41.2%.
Take B8: the Neutralizing activity (%) at 100 µg/ml came out at 66.4% and the Neutralizing activity (%) at 250 µg/ml worked out at 80.7%.
In the same order, the values of B9 are 86.9% and 93.2%.
The corresponding values for B10 are 96.5% and 98.2%.

Another assay concerns the target Influenza virus A/Panama/2007/1999 (H3N2) (Influenza A virus A/Panama/2007/1999 (H3N2)). The experiment in a line: cell-based or functional assay.
For the molecule B1, the Neutralizing activity (%) at 100 µg/ml is -17.1% and the Neutralizing activity (%) at 250 µg/ml was -6.8%.
For B2, the Neutralizing activity (%) at 100 µg/ml turned out to be 7.5% and the Neutralizing activity (%) at 250 µg/ml was 7.5%.
As to B3, the Neutralizing activity (%) at 100 µg/ml was 11% and the Neutralizing activity (%) at 250 µg/ml is 13.7%.
In the case of B4, the Neutralizing activity (%) at 100 µg/ml was 3.4% and the Neutralizing activity (%) at 250 µg/ml is -4.8%.
In the same order, the values of B5 are -6.8% and 11.6%.
Consider B6, for which the Neutralizing activity (%) at 100 µg/ml was -8.9% and the Neutralizing activity (%) at 250 µg/ml is 5.5%.
The corresponding values for B7 are -2.7% and 15.8%.
The corresponding values for B8 are -0.7% and -11%.
B9: the Neutralizing activity (%) at 100 µg/ml was determined as 9.6% and the Neutralizing activity (%) at 250 µg/ml is 5.5%.
The corresponding values for B10 are 15.8% and 34.2%.

These data come from patent publication US20160200799A1.
